According to article PMC7509987:
Where two headings read alike, the source gives them in different places.

B1: mTrxR-CUG (Mus musculus) (protein)
chain: GGQQSFDLLVIGGGSGGLACAKEAAQLGKKVAVADYVEPSPRGTKWGLGGTCVNVGCIPKKLMHQAALLGGMIRDAHHYGWEVAQPVQHNWKTMAEAVQNHVKSLNWGHRVQLQDRKVKYFNIKASFVDEHTVRGVDKGGKATLLSAEHIVIATGGRPRYPTQVKGALEYGITSDDIFWLKESPGKTLVVGASYVALECAGFLTGIGLDTTVMMRSIPLRGFDQQMSSLVTEHMESHGTQFLKGCVPSHIKKLPTNQLQVTWEDHASGKEDTGTFDTVLWAIGRVPETRTLNLEKAGISTNPKNQKIIVDAQEATSVPHIYAIGDVAEGRPELTPTAIKAGKLLAQRLFGKSSTLMDYSNVPTTVFTPLEYGCVGLSEEEAVALHGQEHVEVYHAYYKPLEFTVADRDASQCYIKMVCMREPPQLVLGLHFLGPNAGEVTQGFALGIKCGASYAQVMQTVGIHPTCSEEVVKLHISKRSGLEPTVTGCUG
B2: mTrxRΔ3 (Mus musculus) (protein)
chain: GGQQSFDLLVIGGGSGGLACAKEAAQLGKKVAVADYVEPSPRGTKWGLGGTCVNVGCIPKKLMHQAALLGGMIRDAHHYGWEVAQPVQHNWKTMAEAVQNHVKSLNWGHRVQLQDRKVKYFNIKASFVDEHTVRGVDKGGKATLLSAEHIVIATGGRPRYPTQVKGALEYGITSDDIFWLKESPGKTLVVGASYVALECAGFLTGIGLDTTVMMRSIPLRGFDQQMSSLVTEHMESHGTQFLKGCVPSHIKKLPTNQLQVTWEDHASGKEDTGTFDTVLWAIGRVPETRTLNLEKAGISTNPKNQKIIVDAQEATSVPHIYAIGDVAEGRPELTPTAIKAGKLLAQRLFGKSSTLMDYSNVPTTVFTPLEYGCVGLSEEEAVALHGQEHVEVYHAYYKPLEFTVADRDASQCYIKMVCMREPPQLVLGLHFLGPNAGEVTQGFALGIKCGASYAQVMQTVGIHPTCSEEVVKLHISKRSGLEPTVTG

What was measured:
Assay type in all cases: biochemical
Conditions in all cases: pH 7.0; 22.0 °C
[1] = substrate: O=C(O)c1cc(SSc2ccc([N+](=O)[O-])c(C(=O)O)c2)ccc1[N+](=O)[O-]
[2] = substrate: NCC[Se][Se]CCN
[3] = substrate: NCC[Se][Se]CCN; remark: listed apart in the source
[4] = substrate: O=C(O)c1cc(SSc2ccc([N+](=O)[O-])c(C(=O)O)c2)ccc1[N+](=O)[O-]; remark: listed apart in the source

Protein | Km [1] [µM] | kcat [1] [s⁻¹] | kcat/Km [1] [M⁻¹ s⁻¹] | Km [2] [µM] | kcat [2] [s⁻¹] | kcat/Km [2] [M⁻¹ s⁻¹] | Km [3] [µM] | kcat [3] [s⁻¹] | kcat/Km [3] [M⁻¹ s⁻¹] | Km [4] [µM] | kcat [4] [s⁻¹] | kcat/Km [4] [M⁻¹ s⁻¹]
B1 | 3 ± 0.7 | 52.8 ± 7.5 | 1.83e+07 | 79 ± 0.7 | 62.3 ± 7.5 | 783000 | – | – | – | – | – | –
B2 | – | – | – | – | – | – | 1033 ± 114 | 1.27 ± 0.0667 | 1220 | 12 ± 2.7 | 48.3 ± 8.33 | 4e+06
